Here are results for 23 molecules from patent US20220177587A1, “METHODS AND USES OF VARIANT CD80 FUSION PROTEINS AND RELATED CONSTRUCTS” (Alpine Immune Sciences, Inc., priority 2018, published 2022).

Sequences and labels used below:
B1: L70Q/A91G/N144D (protein)
chain: VIHVTKEVKEVATLSCGHNVSVEELAQTRIYWQKEKKMVLTMMSGDMNIWPEYKNRTIFDITNNLSIVIQALRPSDEGTYECVVLKYEKDGFKREHLAEVTLSVKADFPTPSISDFEIPTSNIRRIICSTSGGFPEPHLSWLEDGEELNAINTTVSQDPETELYAVSSKLDFNMTTNHSFMCLIKYGHLRVNQTFNWNTTKQEHFPDN
modifications: CD80 v122 ECD
B2: L70Q/A91G/I118V/T120S/T130A/K169E (protein)
chain: B1 chain with I118V, T120S, T130A, D144N, K169E
modifications: CD80 v125 ECD
B3: V20L/L70Q/A91S/I118V/T120S/T130A (protein)
chain: B1 chain with V20L, I118V, T120S, T130A, D144N
modifications: CD80 v127 ECD
B4: L70Q/A91G/T130A (protein)
chain: B1 chain with T130A, D144N
modifications: CD80 v2 ECD
B5: L70Q/A91G/E117G/I118V/T120S/T130A (protein)
chain: B1 chain with E117G, I118V, T120S, T130A, D144N
modifications: CD80 v128 ECD
B6: S44P/L70Q/A91G/T130A (protein)
chain: B1 chain with S44P, T130A, D144N
B7: L70Q/A91G/I118A/T120S/T130A/K169E (protein)
chain: B1 chain with I118A, T120S, T130A, D144N, K169E
modifications: CD80 v123 ECD
B8: V4M/L70Q/A91G/I118V/T120S/T130A/K169E (protein)
chain: B1 chain with V4M, I118V, T120S, T130A, D144N, K169E
modifications: CD80 v124 ECD
B9: E35D/M47I: variant CD80 IgV-Fc, IgV SEQ ID NO:177 (protein)
chain: VIHVTKEVKEVATLSCGHNVSVEELAQTRIYWQKDKKMVLTMMSGDINIWPEYKNRTIFDITNNLSIVILALRPSDEGTYECVVLKYEKDAFKREHLAEVTLSVKAD
B10: V68M/L70M/A71D/E95K: variant CD80 IgV-Fc, IgV SEQ ID NO:210 (protein)
chain: B9 chain with D35E, I47M, V68M, L70M, A71D, E95K
B11: D46E/A71D: variant CD80 IgV-Fc, IgV SEQ ID NO:222 (protein)
chain: B9 chain with D35E, D46E, I47M, A71D
B12: V20I/A71D: variant CD80 IgV-Fc, IgV SEQ ID NO:215 (protein)
chain: B9 chain with V20I, D35E, I47M, A71D
B13: H18Y/A71D/L72P/E88V: variant CD80 IgV-Fc, IgV SEQ ID NO:214 (protein)
chain: B9 chain with H18Y, D35E, I47M, A71D, L72P, E88V
B14: N55I/T57I/I69F: variant CD80 IgV-Fc, IgV SEQ ID NO:211 (protein)
chain: B9 chain with D35E, I47M, N55I, T57I, I69F
B15: A12T/E24D/E35D/D46V/I61V/L72P/E95V: variant CD80 IgV-Fc, IgV SEQ ID NO:217 (protein)
chain: B9 chain with A12T, E24D, D46V, I47M, I61V, L72P, E95V
B16: L70Q/A71D: variant CD80 IgV-Fc, IgV SEQ ID NO:220 (protein)
chain: B9 chain with D35E, I47M, L70Q, A71D
B17: E35D/M43I/A71D: variant CD80 IgV-Fc, IgV SEQ ID NO:212 (protein)
chain: B9 chain with M43I, I47M, A71D
B18: E35D/T57A/A71D/L85Q: variant CD80 IgV-Fc, IgV SEQ ID NO:206 (protein)
chain: B9 chain with I47M, T57A, A71D, L85Q
B19: Y31H/E35D/T41S/V68L/K93R/R94W: variant CD80 IgV-Fc, IgV SEQ ID NO:223 (protein)
chain: B9 chain with Y31H, T41S, I47M, V68L, K93R, R94W
B20: V22L/E35D/M43L/A71G/D76H: variant CD80 IgV-Fc, IgV SEQ ID NO:218 (protein)
chain: B9 chain with V22L, M43L, I47M, A71G, D76H
B21: T41S/T57I/L70R: variant CD80 IgV-Fc, IgV SEQ ID NO:213 (protein)
chain: B9 chain with D35E, T41S, I47M, T57I, L70R
B22: E23D/M42V/M43I/I58V/L70R: variant CD80 IgV-Fc, IgV SEQ ID NO:209 (protein)
chain: B9 chain with E23D, D35E, M42V, M43I, I47M, I58V, L70R
B23: I30T/L70R: variant CD80 IgV-Fc, IgV SEQ ID NO:154 (protein)
chain: B9 chain with I30T, D35E, I47M, L70R

Residue numbers refer to the chain shown, from its start. Numbers in names are those of the source.

One assay relates to allogeneic CD4+ T cells. Nature of the assay: Mixed Lymphocyte Reaction (MLR), IFN-gamma. In kind it is cell-based, human. The note with it: Table E32; variant ECD-Fc in MLR assay; culture supernatant. How it is done:
Soluble rCD80.Fc bioactivity was tested in a human Mixed Lymphocyte Reaction (MLR). Human primary dendritic cells (DC) were generated by culturing monocytes isolated from PBMC (BenTech Bio, USA) in vitro for 7 days with 500U/ml rIL-4 (R&D Systems, USA) and 250 U/ml rGM-CSF (R&D Systems, USA) in Ex-Vivo 15 media (Lonza, Switzerland). 10,000 matured DC and 100,000 purified allogeneic CD4+ T cells (BenTech Bio, USA) were co-cultured with variant CD80 Fc fusion proteins and controls in 96 well round bottom plates in 200 μl final volume of Ex-Vivo 15 media. On day 5, IFN-gamma secretion in culture supernatants was analyzed using the Human IFN-gamma Duoset ELISA kit (R&D Systems, USA). Optical density was measured by VMax ELISA Microplate Reader (Molecular Devices, USA) and quantitated against titrated rIFN-gamma standard included in the IFN-gamma Duo-set kit (R&D Systems, USA).
As for B1, the “MLR IFN-gamma levels” value is 716 pg/mL.

As to B2, the “MLR IFN-gamma levels” value came out at 741 pg/mL.

Turning to B3, the “MLR IFN-gamma levels” value came out at 710 pg/mL.

For B4, the “MLR IFN-gamma levels” value came out at 752 pg/mL.

With B5, the “MLR IFN-gamma levels” value turned out to be 736 pg/mL.

As for B6, the “MLR IFN-gamma levels” value was determined as 854 pg/mL.

For B7, the “MLR IFN-gamma levels” value came to 741 pg/mL.

Turning to B8, the “MLR IFN-gamma levels” value turned out to be 991 pg/mL.

Another assay relates to human pan T cells. Nature of the assay: Anti-CD3 coimmobilization assay, IFN-gamma. It is filed as cell-based. The note with it: Table E32; variant ECD-Fc coimmobilized with anti-CD3; culture supernatant. Summed up: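 Plates coated overnight with 1 nM or 4 nM OKT3 anti-CD3 plus 1–80 nM rCD80.Fc variants, then washed. Purified human pan T cells or BC3 T cell clone (100,000/well) cultured 3 days in Ex-Vivo 15; supernatant IFN-gamma measured by ELISA.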
For the molecule B1, the “Coimmobilization with anti CD3 IFN-gamma” value stood at 93 pg/mL.

For the molecule B2, the “Coimmobilization with anti CD3 IFN-gamma” value stood at 104 pg/mL.

For B3, the “Coimmobilization with anti CD3 IFN-gamma” value came to 195 pg/mL.

Regarding B4, the “Coimmobilization with anti CD3 IFN-gamma” value was found to be 99 pg/mL.

Turning to B5, the “Coimmobilization with anti CD3 IFN-gamma” value amounted to 98 pg/mL.

Regarding B6, the “Coimmobilization with anti CD3 IFN-gamma” value came out at 142 pg/mL.

With B7, the “Coimmobilization with anti CD3 IFN-gamma” value came to 86 pg/mL.

In the case of B8, the “Coimmobilization with anti CD3 IFN-gamma” value was 139 pg/mL.

In a further assay the target is T1, CD28 (Homo sapiens, UniProt P10747). Briefly: Jurkat/IL2 reporter assay: blockade of CD28 costimulation (plate-bound anti-CD3/CD86-Fc). It is filed as cell-based. More on the design: host or cells: Jurkat cells expressing an IL-2-luciferase reporter. The conditions noted are these: Table E5; protein diluted to 40 nM before mixing with cells; 5 hours. How it is done: The day before the assay, the assay plate was prepared. […] The plate was incubated overnight at 4° C. to allow the antibody and CD86-Fc protein to adhere to the surface of the plate. The next day, the wells of the assay plate were washed twice with 150 μL PBS prior to the assay.
Jurkat effector cells expressing IL-2-luciferase reporter were counted and resuspended in assay buffer to a concentration of 2×10^6 cells/mL. 60 μL of the Jurkat cell suspension were then added to the wells containing the CD80-Fc fusion molecules or controls. The cells and CD80 proteins were incubated at room temperature for 15 minutes and then 100 μL of the cell/CD80 protein mixture were transferred/well of the prepared anti-CD3/CD86-Fc assay plate.
The assay plate was briefly spun down (10 seconds at 1200 RPM) and incubated at 37° C. for 5 hours. After the 5 hour incubation, the plate was removed and equilibrated to room temperature for 15 minutes. 100 μL of Bio-Glo (Promega) were added/well of the assay plate, which was then placed on an orbital shaker for 10 minutes. Luminescence was measured with a 1 second per well integration time using a BioTek Cytation 3 luminometer.
On the technique in general: In a reporter assay the amount or activity of a reporter protein is the signal.
For the molecule B9, the “Average Relative Luminescence Units” value is 1444 Relative Luminescence Units.

B10: the “Average Relative Luminescence Units” value is 2067 Relative Luminescence Units.

On to B11, for which the “Average Relative Luminescence Units” value is recorded as 490 Relative Luminescence Units.

Take B12: the “Average Relative Luminescence Units” value is on record as 2165 Relative Luminescence Units.

As for B13, the “Average Relative Luminescence Units” value is 1354 Relative Luminescence Units.

B14: the “Average Relative Luminescence Units” value is given as 1915 Relative Luminescence Units.

B15: the “Average Relative Luminescence Units” value was 2408 Relative Luminescence Units.

Consider B16, for which the “Average Relative Luminescence Units” value was 1036 Relative Luminescence Units.

As for B17, the “Average Relative Luminescence Units” value was 3019 Relative Luminescence Units.

With B18, the “Average Relative Luminescence Units” value was 3213 Relative Luminescence Units.

In the case of B19, the “Average Relative Luminescence Units” value is 3678 Relative Luminescence Units.

Turning to B20, the “Average Relative Luminescence Units” value is listed as 2004 Relative Luminescence Units.

B21: the “Average Relative Luminescence Units” value is listed as 3641 Relative Luminescence Units.

As for B22, the “Average Relative Luminescence Units” value is 4460 Relative Luminescence Units.

In the case of B23, the “Average Relative Luminescence Units” value is given as 3236 Relative Luminescence Units.

A further assay concerns the target T1, CD28. Nature of the assay: Jurkat/IL2 + CHO/OKT3 +/- PD-L1 reporter assay: PD-L1-dependent CD28 costimulation. The note with it: CHO/OKT3/PD-L1 aAPC; 0.6 nM; luciferase signal. In kind it is cell-based. Further details: host or cells: Jurkat cells expressing an IL-2-luciferase reporter. The procedure, abridged:
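Jurkat reporter cells (100,000/well) preincubated 15 min at room temperature with test protein, then cocultured 5 h at 37 °C with CHO aAPCs bearing anti-CD3 scFv (OKT3) with or without PD-L1. Luciferase luminescence (RLU) read after lysis-substrate addition.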
For the molecule B9, the “PD-L1-Dependent CD28 Costimulation, +PD-L1, 0.6 nM” value is on record as 1047.

Still in this assay, the particulars now being: CHO/OKT3/PD-L1 aAPC; 50 nM; luciferase signal.
For B9, the “PD-L1-Dependent CD28 Costimulation, +PD-L1, 50 nM” value was found to be 3778.

The assay is the same for the next values; noted with them: CHO/OKT3 aAPC, no PD-L1; 50 nM; luciferase signal.
Turning to B9, the “PD-L1-Dependent CD28 Costimulation, No PD-L1, 50 nM” value was 894.

Staying with this assay, now noted: CHO/OKT3 aAPC, no PD-L1; […]; luciferase signal.
In the case of B9, the “PD-L1-Dependent CD28 Costimulation, No PD-L1, […]” value is recorded as 637.
